Laboratory results: US20160194399A1 (CYTOMX THERAPEUTICS, published 2016)

Experiments:
[1] = molecular target: T1, SP34-binding peptide 15865; assay: flow cytometry on peptide-displaying E. coli, 1 nM SP34-dylight-488 with 100 nM isotype control, normalised to peptide expression (yPet-Mona)
T1 peptide: MMYCGGNEVLCGPRV

[2] = molecular target: T2, SP34-binding peptide 14995; assay: as above
T2 peptide: YSLWGCEWGCDRGLY

[3] = molecular target: T3, SP34-binding peptide 15003; assay: as above
T3 peptide: GYRWGCEWNCGGITT

[4] = molecular target: T4, SP34-binding peptide 15263; assay: as above
T4 peptide: WYSGGCEAFCGILSS

[5] = molecular target: T5, SP34-binding peptide 15286; assay: as above
T5 peptide: GYSGGCEFRCYQLYS

[6] = molecular target: T6, SP34-binding peptide 15860; assay: as above
T6 peptide: VYYCGGNESLCGERR

[7] = molecular target: T7, SP34-binding peptide 15864; assay: as above
T7 peptide: FMCQQRMWGNEFCHQ

[8] = molecular target: T1, SP34-binding peptide 15865; assay: flow cytometry on peptide-displaying E. coli, 10 nM SP34-dylight-488 with 100 nM isotype control, normalised to peptide expression (yPet-Mona)
[9] = molecular target: T2, SP34-binding peptide 14995; assay: as above
[10] = molecular target: T3, SP34-binding peptide 15003; assay: as above
[11] = molecular target: T4, SP34-binding peptide 15263; assay: as above
[12] = molecular target: T5, SP34-binding peptide 15286; assay: as above
[13] = molecular target: T6, SP34-binding peptide 15860; assay: as above
[14] = molecular target: T7, SP34-binding peptide 15864; assay: as above
[15] = molecular target: T1, SP34-binding peptide 15865; assay: flow cytometry on peptide-displaying E. coli, 0.1 nM SP34-dylight-488 with 100 nM isotype control, normalised to peptide expression (yPet-Mona)
[16] = molecular target: T2, SP34-binding peptide 14995; assay: as above
[17] = molecular target: T3, SP34-binding peptide 15003; assay: as above
[18] = molecular target: T4, SP34-binding peptide 15263; assay: as above
[19] = molecular target: T5, SP34-binding peptide 15286; assay: as above
[20] = molecular target: T6, SP34-binding peptide 15860; assay: as above
[21] = molecular target: T7, SP34-binding peptide 15864; assay: as above
[22] = molecular target: T1, SP34-binding peptide 15865; assay: flow cytometry on peptide-displaying E. coli, 100 nM SP34-dylight-488 with 100 nM isotype control, normalised to peptide expression (yPet-Mona)
[23] = molecular target: T2, SP34-binding peptide 14995; assay: as above
[24] = molecular target: T3, SP34-binding peptide 15003; assay: as above
[25] = molecular target: T4, SP34-binding peptide 15263; assay: as above
[26] = molecular target: T5, SP34-binding peptide 15286; assay: as above
[27] = molecular target: T6, SP34-binding peptide 15860; assay: as above
[28] = molecular target: T7, SP34-binding peptide 15864; assay: as above
[29] = molecular target: T1, SP34-binding peptide 15865; assay: flow cytometry on peptide-displaying E. coli, 1 nM SP34-dylight-488 with 100 nM free human CD3ε as competitor, normalised to peptide expression (yPet-Mona)
[30] = molecular target: T2, SP34-binding peptide 14995; assay: as above
[31] = molecular target: T3, SP34-binding peptide 15003; assay: as above
[32] = molecular target: T4, SP34-binding peptide 15263; assay: as above
[33] = molecular target: T5, SP34-binding peptide 15286; assay: as above
[34] = molecular target: T6, SP34-binding peptide 15860; assay: as above
[35] = molecular target: T7, SP34-binding peptide 15864; assay: as above

B1: Anti-CD3ε antibody SP34 (antibody, V domains shown)
VH: EVQLVESGGGLVQPKGSLKLSCAASGFTFNTYAMNWVRQAPGKGLEWVARIRSKYNNYATYYADSVKDRFTISRDDSQSILYLQMNNLKTEDTAMYYCVRHGNFGNSYVSWFAYWGQGTLVTVSA
VL: QAVVTQESALTTSPGETVTLTCRSSTGAVTTSNYANWVQEKPDHLFTGLIGGTNKRAPGVPARFSGSLIGDKAALTITGAQTEDEAIYFCALWYSNLWVFGGGTKLTVL
notes: Bought mouse monoclonal (BD Biosciences Cat# 556610); also called SP34 antibody
expression normalized binding [1]: 0.79
expression normalized binding [2]: 0.13
expression normalized binding [3]: 0.2
expression normalized binding [4]: 0.35
expression normalized binding [5]: 0.42
expression normalized binding [6]: 0.52
expression normalized binding [7]: 0.36
expression normalized binding [8]: 1.08
expression normalized binding [9]: 0.11
expression normalized binding [10]: 0.39
expression normalized binding [11]: 0.69
expression normalized binding [12]: 0.66
expression normalized binding [13]: 1.72
expression normalized binding [14]: 0.63
expression normalized binding [15]: 0.21
expression normalized binding [16]: 0.08
expression normalized binding [17]: 0.11
expression normalized binding [18]: 0.24
expression normalized binding [19]: 0.28
expression normalized binding [20]: 0.48
expression normalized binding [21]: 0.15
expression normalized binding [22]: 2.24
expression normalized binding [23]: 0.51
expression normalized binding [24]: 0.69
expression normalized binding [25]: 2.28
expression normalized binding [26]: 1.72
expression normalized binding [27]: 4.55
expression normalized binding [28]: 1.88
expression normalized binding [29]: 0.26
expression normalized binding [30]: 0.08
expression normalized binding [31]: 0.12
expression normalized binding [32]: 0.34
expression normalized binding [33]: 0.34
expression normalized binding [34]: 0.51
expression normalized binding [35]: 0.3
